Source: paper PMC3198426

Molecular target: HAVI-Fluc-bJun (basic leucine zipper region of Jun, 225-334) (human)
Test: pull-down; DLR-PD (dual luciferase reporter pull-down): both proteins co-expressed in HEK293; lysate in passive lysis buffer on Streptavidin MagneSphere Paramagnetic Particles in PBS, 30 m to 1 h, room temperature; two washes PBS with 1% Nonidet P 40, one with PBS; the biotinylated HAVI-tagged protein is held, Fluc and Rluc activity read on the beads; in some samples eYFP-MAVS or other activators (IRF3) or HCV NS3/4A (MAVS) co-expressed

Rluc-bFos-Flag (basic leucine zipper region of Fos, 118-220), sequence (P01100 other isoform, or with tags, fused parts or gaps): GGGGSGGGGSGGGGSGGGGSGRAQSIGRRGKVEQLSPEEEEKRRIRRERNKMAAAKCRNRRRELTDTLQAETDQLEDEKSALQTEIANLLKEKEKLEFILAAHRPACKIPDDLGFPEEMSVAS
HAVI-Fluc-bJun (basic leucine zipper region of Jun, 225-334) (human), sequence (P05412 whole entry): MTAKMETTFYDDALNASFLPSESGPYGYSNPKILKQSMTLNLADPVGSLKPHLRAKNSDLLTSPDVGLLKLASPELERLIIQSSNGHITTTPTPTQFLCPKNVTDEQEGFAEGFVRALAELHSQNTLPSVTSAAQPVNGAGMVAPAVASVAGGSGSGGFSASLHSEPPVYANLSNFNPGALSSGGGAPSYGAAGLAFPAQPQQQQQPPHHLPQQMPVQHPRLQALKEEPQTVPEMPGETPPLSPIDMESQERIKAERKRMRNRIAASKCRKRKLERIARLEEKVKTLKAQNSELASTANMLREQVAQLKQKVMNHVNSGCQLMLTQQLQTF

activity ratio of Rluc/Fluc on the beads (Rluc/Fluc activity ratio): 1.7
fold of the percentage of Rluc on beads over the three negative controls: > 80 fold
molar ratio of Rluc-bFos to HAVI-Fluc-bJun binding to the beads: 0.1 molar ratio
percentage of Rluc on beads to lysate: 4%
Substance: Rluc-bFos-Flag (basic leucine zipper region of Fos, 118-220) (from UniProt P01100 118-220) (domain or fragment)
